Test: yeast display, Sf9 membrane polyspecificity reagent, FACS + sequencing; frameworks hold sequencing errors
How it was run: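 After 36–48 hours of galactose induction, yeast (Saccharomyces cerevisiae BJ5465) displaying a synthetic nanobody library were stained at 4 °C for 1 hour with 10% biotinylated, detergent-solubilized Sf9 membrane reagent. Streptavidin microbeads enriched the stained cells before FACS sorting into low and high (top ~1%) gates on anti-HA and streptavidin fluorescence. Each clone's polyreactivity label reflects its gate of origin.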

| Sequence | polyreactivity (PSR sort gate) |
| --- | --- |
| QVQLVESGGGLVQAGGSLRLSCDASGSTSKTYAMGWYRQAPGKERELVAVISYGGTTYYADSVKGRFTISRDNAKNTVYLQLNSLKPEDTAVYYCAARAWHRRGVPHYYWGQGSQVTVSS | high polyreactivity |
| QVQLVESGGGLVQAGGSLRLSCDASGSTSSKYAMGWYRQAPGKEWQLVATISWRTGSTYYADSVKGRFTISRDNAKNTVYLEMNSLKPEETAVYYCNARVAGRRKYDYWGQGTQVTVSS | high polyreactivity |
| QVQLVESGGGLVQAGGSLRLSCDDSGFIFFDYAMGWYRQAPGKEREFVAAISTRGGSTYYADSVKGLFTISRDNAKNTVYLQMNSLKPEDTSVYYCNARTIRPWGENGYWGQGTQVSVSS | high polyreactivity |
| QVQLVESGGGLVQAGGSLRLSCGASGFISKFYAMGWYRQAPGKERELVASISRDGSTSYADSVKGRFTMSRDNAKNSVYLQMNSLKPEDTAVYYCAAPSYRTRYYYWGQGTQVTVSS | high polyreactivity |
| QVQLVESGGGLVQAGGSLRLSCGASGFTFSPYAMGWYRQAPGKERELVAVISGGGSTYYADSVKGRFTISRDNAKNTVYLQMNSLKPEDTAGYYCAKRFYRSYYWGQGTQVTVSS | high polyreactivity |
| QVQLVESGGGLVQAGGSLRLSCGASGIIFFNNVMGWYRHAPGKERELVAAITFSGSSTYYADSVKGRFTISRDNAKNTVYLQMNSMKPEDTAVYYCAAKYYGVLYTVPGDDYWGQGTLVTVSS | low polyreactivity |
| QVQLVESGGGLVQAGGSLRLSCGASGNIFTRNAMGWSRQAPGKERECVAAITESGASTYYADSVKGRFTISRDNAKNTVYLQMNSLKPEDTAVYYCNARLSRWRRRPYDYWGQGTQVTVSS | high polyreactivity |
| QVQLVESGGGLVQAGGSLRLSCGASGRIFAYYAMGWYRQAPGKERELVADISSGGNTYYADSVKGRFTISRDNAKNTVYLQMNSLKPEDTAVYYCAADIAWYTHDHRIFDYWGQGTQVTVSS | low polyreactivity |
| QVQLVESGGGLVQAGGSLRLSCGASGRIFGINAMGWYRQAPGKERELVAAITKSGGTTYYADSVKGRFTISRDNAKNTVYLQMNTLKPEDTAVYYCAAKGSVVYQLRYDYWGQGTQVTVSS | high polyreactivity |
| QVQLVESGGGLVQAGGSLRLSCGASGRIFYYYVMGWSRQGPGKERELVAVIDWSGGSTYYADSVKGRFTISRDNAKNTVYLQMNSLKPEDTAVYYCAKVWLKFSLAYEDYVYWGQGTQVTVSS | low polyreactivity |
| QVQLVESGGGLVQAGGSLRLSCGASGSIFNKYAIGWYRQAPGKERELVAAISVSGTRTYYADSVKGRFTISRDNAKNTCYLQMNSLKPEDTAVYYCAATRLDSTGSMYYYWGQGTQVTVSS | high polyreactivity |
| QVQLVESGGGLVQAGGSLRLSCGASGSIFRLNAMGWYRQAPGKERELVARIDSSGSTNYADSVKGRFTISRDNAKNTVYLQMNSLKPEDTAVYYCAAVLVLIVGMDSWGQGTQVTVSS | low polyreactivity |
| QVQLVESGGGLVQAGGSLRLSCGASGSIFYGYAMGWYRQAPGKERELVASITYSGGSTYYADSVKGRFTISRDNAKNTVYLQMNSLKPEDTTVYYCAVIGYHYSAISPASQTRQGYDYWGQGTQVTVSS | low polyreactivity |
| QVQLVESGGGLVQAGGSLRLSCGASGSIFYQNVMGWYRQAPGKERELVAAISSSGDSTYYADSVKGRFTISRDNAKNTVYLQMNSLKPEDTAVYYCAAEPEYVSGPYDYWGQGTQVTVSS | low polyreactivity |
| QVQLVESGGGLVQAGGSLRLSCGAYGLTFTYNTMGWYRPAPGKERELVAAITSSGGRTYYADSVKGRFTISRDHAKNTVYFQMNSLKPEDTAVYYCAKTKYYPKRDYYWGQGTLVTVSS | high polyreactivity |
| QVQLVESGGGLVQAGGSLRLSCHASGYTFYVYALGWYRQPPGKERELVAAIGGGSTNYADSVKGRFTISRDNAKNTVYLQMNSLKPEDTAVYYCAARRYYKFYYWGQGTQVTVSS | high polyreactivity |
| QVQLVESGGGLVQAGGSLRLSCHATGFTFTIYAMGWYRQAPGKERELVATISGRAGRTYYADSVKGRFTISRDIAKNTVYLQMNSLKPEDTAVYYCNAGQWRYPGLYYYWGKGTQVTVSS | high polyreactivity |
| QVQLVESGGGLVQAGGSLRLSCPASGFIIRLYVMGWYRQAPGKERELVAAISSGGRTYYADSVKGRFTISRDNAKNTVYLQMNSLKPEDTAVYYCAAYVRGWGCDDFWGQGSQVTVSS | high polyreactivity |
| QVQLVESGGGLVQAGGSLRLSCPASGFNFPAYTMGSYRQAPGKERELVAAITSSGGNTYYADSVKGRFTISRDNAKNTVYFQMNSLKPEDTAVYYCATVSVRWPSNDHVRYDYWGQGTQVTVSS | low polyreactivity |
| QVQLVESGGGLVQAGGSLRLSCPASGFTFHHYVMGWYRPAPGKEMEFVASIRWRGGSTYYADSVKGRFTISRDNAKTTVYLQMNSLKPEDTAVYYSNADPYVYSSWQYGYWGQGTQVTVSS | high polyreactivity |
| QVQLVESGGGLVQAGGSLRLSCPASGITFKGYTMGWYRQAPGKERELVATISRGGRTYADSVKGRFTISRDNAKKTFYLQMNSLKPEDTSVYYCAADKYWAQNDYWGQGTQVTVSS | low polyreactivity |
| QVQLVESGGGLVQAGGSLRLSCPASGRIFYPYPKGWYRQAPGKERELVATITRTGSTYYADSVKGRFTITRDNAKNTVYVQMNSLKPEDPAVYYCAVQRSYVGPRQYNYWGQGTQVTVSS | high polyreactivity |

| Sequence | polyreactivity (PSR sort gate) |
| --- | --- |
| QVQLVESGGGLVQAGGSLRLSCPASGRTFKWYAMGWYRQAPGKERELVAAISTGGRTHYADSVKGRFTISRDNSKNTVYLQMNSLKPEDTAVYYCNAADDLADPERTENHKRDYWGQGTQVTVSS | high polyreactivity |
| QVQLVESGGGLVQAGGSLRLSCPASGRTFNWNAMGWYRKAPGKERELVADISIRGGSTNYADSVKGRFTISRDNAKNTVYLQMNSLKPEDTAVYYCAAEYYDSGNDYWGQGTQVTVSS | low polyreactivity |
| QVQLVESGGGLVQAGGSLRLSCPASGRTFWWYAMGWYRQAPGKEREIVAAISQRGTSTYYADSVKGRFTISRDNAKNTVYLQMNSLNPEDTAVYYCAADRPYYPLKYDYWGQGTQVTVSS | high polyreactivity |
| QVQLVESGGGLVQAGGSLRLSCPASGRTIRPYAMGWYRQAPGKERELVAAITGSGTSTYYADSVKGRFTISRDNAKNTVYLQMNSLKPEDTAVYYCAVAIGYVYKTYYYWGQGTQVTVSS | high polyreactivity |
| QVQLVESGGGLVQAGGSLRLSCPASGSIFKYYAMGWYRQAPGKDRELVAPITDRGSSTYYADSVKGRFTISRDNAKNTVYLQMNSLKPEDTAVYYCAAVYYAFYRFGYWGQGTQVTVSS | high polyreactivity |
| QVQLVESGGGLVQAGGSLRLSCPASGSTFLFNAMGWYRQAPGKERELVAAIRSDGSTDYADSVKGRFTISRDNAKTTVYLQMNSLKPEDTAVYYCAAESITGYVSDFDYWGQGTQVTVSS | low polyreactivity |
| QVQLVESGGGLVQAGGSLRLSCPASGSTFRYYAMGWYRQAPGKERELVAAISYRGGSTKYADSVKGRFTISRDNAKNTVYLQMNSLKPEDTAVYYCNTAPWWRTSSDYEYWGQGTQVTVSS | high polyreactivity |
| QVQLVESGGGLVQAGGSLRLSCPASGSTFVLNAMGWYSQAPGKERELVAAITGSGSTNYADSVKGRFTISRDNAKNTVYLQMNRLKPEDTAVYYCATAAVYPIPFGYWGQGTQVTVSS | low polyreactivity |
| QVQLVESGGGLVQAGGSLRLSCPASGSTFYYYAMGWYRQAPGKERELVASISDDGSTNYADSVKGRFTISRDNAKNTVYLQMNSLKPEDTAVYYCAAVWWHQFGSAWYQMGYWGQGTQVTVSS | low polyreactivity |
| QVQLVESGGGLVQAGGSLRLSCPASGTIFYVNAMGLYRQEPGKETEFVAAITGGASTNFADSVKGRFTSSRDNAKNTVYLQMNSLKPEDTAVYYCAVDPVGHATRVWTYHYDYWGQGTQVTVSS | low polyreactivity |
| QVQLVESGGGLVQAGGSLRLSCPASGTTIVSNAMGWYRQAPGKERDLVAAISSSGGRTSYADSVKGRFTISRDNAKNTVSLQMNSLKPEDTAVYYCAADHPPGDTYEYWGQGTQVSVSS | low polyreactivity |
| QVQLVESGGGLVQAGGSLRLSCPASGYTFYKNAMGWYRQPPGKERELVAAISYSGGRTYYADSVKGRFTISRDNAKNTVYLQMNSLKPEDTAVYYCAKATRVITDDGSYGYWGQGSQVTVSS | high polyreactivity |
| QVQLVESGGGLVQAGGSLRLSCPASVLILVYYAMGWYRQAPGKERELVAAINPGGSTKYADSVKGRFTISRDNAKNTVYLQMNSLKQEDTEVYYCNADGEGADSDYDYWGQGTKVTVSS | low polyreactivity |
| QVQLVESGGGLVQAGGSLRLSCPAYGYTILPNAMGWYRQAPGKEREFVAAISYSGGRTYYADSVKGRFTISRDNAKNTVYLQMNSLKPEDTAVYYCATELYGYRYDYWGQGTQVTVSS | low polyreactivity |
| QVQLVESGGGLVQAGGSLRLSCPPSGTFSFYAMGWYRQAPGKERELVATIRSGGRTYYADSVKGRFTISRDNAKNTVYLQMNSLKPEDTAVYYCAAASTKLSGSDYDYWGQGTQVTVSS | high polyreactivity |
| QVQLVESGGGLVQAGGSLRLSCSASGFIFGPNAMGWYRQAPGKEMELVAAISWMGSSTYYADSVKGRFTISRDNANNTVYLQMNSLKPEDTAVYYCAADSSERRLLDFDYWGQGTNVTVSS | low polyreactivity |
| QVQLVESGGGLVQAGGSLRLSCSASGFIFPRYTMGWYRQAPGKERELVAGITLRGGSTYYADSVKGRFTISRDNAKNTVYLQMNSLKPDDTAVYYCARGISRGRSFGIGYDYWGQGTQVTVSS | low polyreactivity |
| QVQLVESGGGLVQAGGSLRLSCSASGFTFRYYTMGWYRQAPGKERELVAAISRSSGSRTYYADSVKGRFTISRDNAKNTVYLQMNSLKPEDTAVYYCNADPAYQFDYWGQGTQVTVSS | high polyreactivity |
| QVQLVESGGGLVQAGGSLRLSCSASGFTFYRNAMGWYRQAPGKERELVASISRSGGSTYYADSVKGRFTISRDNAKNTVYLQMNSLKPEDTAVYYCAADLCWIYPHKYYYWGQGTQVTVSS | high polyreactivity |
| QVQLVESGGGLVQAGGSLRLSCSASGGTFEFYTMGWYRQAPGKERELVAAISWSGSSTYYADSVKGRFTISRDNAKNTVYLQMNSLKPEDTAVYYCAAYPRPYIGYTDGYVWYEFDYWGQGTQVTVSS | low polyreactivity |
| QVQLVESGGGLVQAGGSLRLSCSASGIIFSTYAKGWYRQAPGKERELVAAITSTGSTNYADSVKGRFTISRDNAKNTVYLQLNSLKPEDTAVYYCAARYAGPSPTDTGHDYWGQGTQVTVSS | low polyreactivity |

Source: the nanobody polyreactivity screen of Harvey et al. (2022)
